According to paper PMC12427885 (Foods, 2025):

How the values were obtained:
[1] = biological target: diamine oxidase from Glutamicibacter halophytocola (DAO-GH) (Glutamicibacter halophytocola); assay: SEC; HiLoad 16/600 Superdex 200 prep grade; 50 mM sodium phosphate, 150 mM NaCl, pH 7; 1 mL/min; HIC-purified (partially purified) DAO-GH; fractions analysed for DAO activity; calibrated with the high molecular weight gel filtration kit; native mass compared with the monomer's mass
[2] = system: NCCc1ccc(O)cc1; assay: purified protein; details: apparent, 25 mM potassium phosphate pH 6.8, 37 °C, 0.005-3 mM tyramine, partially purified enzyme
[3] = biological target: T1, DAO-GH (Glutamicibacter halophytocola, UniProt Z9MBQ1XXX8); assay: DA-67/horseradish peroxidase coupled H2O2 assay, […] nm; Michaelis-Menten nonlinear regression; assay type: biochemical; details: substrate inhibition by tyramine; second site; 25 mM potassium phosphate pH 6.8, 37 °C; partially purified enzyme
T1 construct: gene from G. halophytocola isolate, codon-optimized, intracellular expression in Komagataella phaffii; partially purified (PEI, ammonium sulfate, HIC)
T1 sequence (Z9MBQ1XXX8 1-653): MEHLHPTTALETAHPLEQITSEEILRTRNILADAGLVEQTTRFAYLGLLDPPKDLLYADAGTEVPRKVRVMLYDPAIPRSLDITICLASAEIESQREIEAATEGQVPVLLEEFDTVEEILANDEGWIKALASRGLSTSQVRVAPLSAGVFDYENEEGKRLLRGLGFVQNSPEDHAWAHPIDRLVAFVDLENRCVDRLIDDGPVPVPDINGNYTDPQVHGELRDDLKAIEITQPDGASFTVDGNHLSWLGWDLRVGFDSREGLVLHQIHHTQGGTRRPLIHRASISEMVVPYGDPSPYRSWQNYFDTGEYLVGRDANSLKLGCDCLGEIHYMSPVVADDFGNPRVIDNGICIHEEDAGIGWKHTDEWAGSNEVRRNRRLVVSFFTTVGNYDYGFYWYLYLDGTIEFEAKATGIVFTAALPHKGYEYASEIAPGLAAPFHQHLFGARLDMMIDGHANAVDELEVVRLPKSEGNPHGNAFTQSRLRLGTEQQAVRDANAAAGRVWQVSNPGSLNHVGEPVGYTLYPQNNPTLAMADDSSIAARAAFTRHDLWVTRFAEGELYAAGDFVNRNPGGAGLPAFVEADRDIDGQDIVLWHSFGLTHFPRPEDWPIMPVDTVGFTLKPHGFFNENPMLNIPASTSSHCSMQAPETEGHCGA

Compound “diamine oxidase from Glutamicibacter halophytocola (DAO-GH) (enzyme)” has a stoichiometry N [1] of 2.

DAO-GH (Glutamicibacter halophytocola) gave a Km [2] of 9 ± 0.2 µM.

NCCc1ccc(O)cc1 [tyramine] was tested, and the Ki [3] was 10.4 ± 4.0 mM.
